# Data taken from publication PMC3189207 (2011).
# T1: APC (Homo sapiens)
# T1 chain: HSGSYLVTSV
# T2: ABR (Homo sapiens)
# T2 chain: RNTLYFSTDV
# T3: ZNF654 (Homo sapiens)
# T3 chain: SSAQPSETIL
# T4: AHDC1 (Homo sapiens)
# T4 chain: PEDTFTVTSL
# T5: ZO2 (Homo sapiens)
# T5 chain: QSARYDTEL
# T6: ANKS4B (Homo sapiens)
# T6 chain: QPGQLVDTSL
# B1: Scrib PDZ2 (protein)
# chain: QRHVACLARSERGLGFSIAGGKGSTPYRAGDAGIFVSRIAEGGAAHRAGTLQVGDRVLSINGVDVTEARHDHAVSLLTAASPTIALLLEREAGGP
# B2: Scrib PDZ1 (protein)
# chain: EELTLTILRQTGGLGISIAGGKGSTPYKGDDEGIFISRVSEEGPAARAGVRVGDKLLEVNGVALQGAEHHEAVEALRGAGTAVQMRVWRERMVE
# B3: Scrib PDZ3 (protein)
# chain: PVEEIRLPRAGGPLGLSIVGGSDHSSHPFGVQEPGVFISKVLPRGLAARSGLRVGDRILAVNGQDVRDATHQEAVSALLRPCLELSLLVRRDPAPP
# Columns and labels:
# Test in all cases: fluorescence polarization
# APC = biological target: T1, APC
# ABR = biological target: T2, ABR
# ZNF654 = biological target: T3, ZNF654
# AHDC1 = biological target: T4, AHDC1
# ZO2 = biological target: T5, ZO2
# ANKS4B = biological target: T6, ANKS4B
Binder,Kd (APC),Kd (ABR),Kd (ZNF654),Kd (AHDC1),Kd (ZO2),Kd (ANKS4B)
B1,9.5 µM,10.4 µM,32.1 µM,,,
B2,12.3 µM,12.5 µM,,19.2 µM,16 µM,
B3,6.7 µM,2.9 µM,18.3 µM,10.4 µM,13.7 µM,28.2 µM
